According to US20230270892A1, “CHELATOR COMPOSITIONS FOR RADIOMETALS AND METHODS OF USING SAME” (TRIUMF INC., priority 2020, published 2023):

Columns and labels:
[1] = DTPA challenge (transmetallation) of ^225Ac-crown-αMSH on HPLC; assay type: physicochemical; conditions: addition of 1000 eq. of DTPA, in 7 hours
in vivo = test: in vivo; parameters: species or system mice; conditions: male, C57BL/6J, mouse, iv, total radioactivity
Experimental: The inventors performed an in vivo evaluation to establish the biodistribution profile of ^225Ac-crown-αMSH in B16F10 tumor bearing mice. The B16F10 cell line (Mus musculus) was obtained commercially from ATCC (CRL-6475), and confirmed pathogen-free using the IMPACT 1 mouse profile (IDEXX BioResearch). The cells were cultured in DMEM media (StemCell Technologies) supplemented with 10% FBS, 100 U/mL penicillin and 100 µg/mL streptomycin at 37° C. in a humidified incubator containing 5% CO2. All animal experiments were conducted according to the guidelines established by Canadian Council on Animal Care and approved by Animal Ethics Committee of the University of British Columbia (UBC). Male C57BL/6J mice were acquired in-house and kept under pathogen-free conditions in the Animal Resource Centre at the BC Cancer Research Centre. The mice were anesthetised by inhalation of 2% isoflurane in 2 L/min oxygen, and 1 x10^6 B16F10 cells were inoculated subcutaneously at right flank. Two to four days after inoculation, the mice were transferred to the UBC Centre of Comparative Medicine, where biodistribution studies were performed once the tumors reached 8-10 mm. At the day of biodistribution mice were injected in the tail vein with ~20 kBq of ^225Accrown-αMSH (range: 10.8-31.6 kBq). After injection mice were allowed to roam freely in their cages, and they were euthanized in groups of 4 at 2 hours post injection by CO2 asphyxiation under isoflurane anesthesia. Blood was collected by cardiac puncture and a full biodistribution performed. Organs were cleaned from blood, weighed and the activity determined using a calibrated gamma counter (Packard Cobra II Auto-gamma counter, Perkin Elmer, Waltham, MA, USA) using three energy windows: 60-120 keV (window A), 180-260 keV (window B), and 400-480 keV (window C). Counting was performed after 6 hours post-sacrifice to ensure equilibrium of the ^225Ac decay chain. Counts were decay corrected from the time of sacrifice and total organ weights were used for the calculation of injected dose per gram of tissue (% ID/g). No differences were noted between the data calculated by three different windows; therefore, the biodistributions are reported using the data acquired using window A. The inventors evaluated biodistribution of ^225Ac-crown-αMSH in mice bearing B16F10 tumors at 2 h post-injection (p.i.) in two separate studies using a total of 5 groups of mice (Table 3). In the first study, three conditions were evaluated: ^225Ac-crown-αMSH prepared the day before (18 h) (A, FIG. 22, right bars), same day (4 h) (B), or same day (4 h) with Sep-Pak purification (C); in the second study the inventors compared 225Ac-crown-αMSH labelled 4 hours before with Sep-Pak purification and with the introduction of 0.1 M L-ascorbate (D, FIG. 22, left bars), or ^225Ac-crown-αMSH prepared 18 hours prior with L-ascorbate (E).

[2] = Stability of ^225Ac-labelled crown complex left at ambient temperature; assay type: physicochemical; conditions: up to 5 days and up to 8 days in a second experiment
Experimental: The reaction was largely complete after 10 min. […] To obtain the data shown in FIG. 14, labeling with crown was conducted at room temperature for a period of 15 minutes, while labelling with DOTA was conducted at 90° C. for a period of 15 minutes.

| SMILES | transmetallation on HPLC [1] | tissue uptake at 2 h (in vivo; 20 kBq, Biodistribution: Bone) | tissue to tissue ratio at 2 h (in vivo; tumor to blood ratio) | tissue to tissue ratio at 2 h (in vivo; tumor to bone ratio) | tissue to tissue ratio at 2 h (in vivo; tumor to kidneys ratio) | tissue uptake at 2 h (in vivo; tumor uptake) | free ^225Ac observed [2] |
| --- | --- | --- | --- | --- | --- | --- | --- |
| CCCC[C@H](NC(=O)CN1CCC(NC(=O)CN2CCOCCN(CC(=O)O)CCN(CC(=O)O)CCOCCN(CC(=O)O)CC2)CC1)C(=O)N[C@H]1CC(=O)NCCCC[C@@H](C(N)=O)NC(=O)[C@H](Cc2c[nH]c3ccccc23)NC(=O)[C@H](CCCNC(=N)N)NC(=O)[C@@H](Cc2ccccc2)NC(=O)[C@H](Cc2c[nH]cn2)NC1=O [^225Ac-crown-αMSH, metal not drawn] | 64% | 1.82 %ID/g | 85.4 ± 46.8 | 63.5 ± 13.2 | 2.8 ± 0.98 | 12.7 ± 2.31 %ID/g | – |
| O=C(O)CN1CCOCCN(CC(=O)O)CCN(CC(=O)O)CCOCCN(CC(=O)O)CC1 [crown, 2,2’,2”,2’”-(1,10-dioxa-4,7,13,16-tetraazacyclooctadecane-4,7,13,16-tetrayl)tetraacetic acid] | – | – | – | – | – | – | < 2% |
